*1 amine or outer side, *2 acyl side, *3 side chain or, on linkers, in order; H or OH if unused. Bridges are numbered along the chain shown (N, C = ends). [ ]: non-standard residue; d: D form. The star is where a group is joined. DOTA = O=C(O)CN1CCN(CC(=O)O)CCN(CC(=O)*)CCN(CC(=O)O)CC1; N(2-mercaptoethyl)Gly = O=C(CN(CCS[*:3])[*:1])[*:2]
Legend:
(CR)L-RAMP3 (human) = (CR)L-RAMP3 (human) (UniProt Q16602); test: cell-based or functional assay
ADCYAP1R1 (human) = ADCYAP1R1 (human) (UniProt P41586); test: cell-based or functional assay
ADRA1B (human) = ADRA1B (human) (UniProt P35368); test: cell-based or functional assay
ADRA2A (human) = ADRA2A (human) (UniProt P08913); test: cell-based or functional assay
ADRB2 (human) = ADRB2 (human) (UniProt P07550); test: cell-based or functional assay
AGTR1 (human) = AGTR1 (human) (UniProt P30556); test: cell-based or functional assay
C5L2 (human) = C5L2 (human) (UniProt Q9P296); test: cell-based or functional assay
CALCR (CR) (human) = CALCR (CR) (human) (UniProt P30988); test: cell-based or functional assay
CCR2 (human) = CCR2 (human) (UniProt P41597); test: cell-based or functional assay
CHRM1 (human) = CHRM1 (human) (UniProt P11229); test: cell-based or functional assay
CHRM4 (human) = CHRM4 (human) (UniProt P08173); test: cell-based or functional assay
CHRM5 (human) = CHRM5 (human) (UniProt P08912); test: cell-based or functional assay
CRHR2 (human) = CRHR2 (human) (UniProt Q13324); test: cell-based or functional assay
CXCR2 (human) = CXCR2 (human) (UniProt P25025); test: cell-based or functional assay
CXCR5 (human) = CXCR5 (human) (UniProt P32302); test: cell-based or functional assay
DRD1 (human) = DRD1 (human) (UniProt P21728); test: cell-based or functional assay
DRD2S (human) = DRD2S (human) (UniProt P14416); test: cell-based or functional assay
EBI2 (human) = EBI2 (human) (UniProt P32249); test: cell-based or functional assay
EDG4 (human) = EDG4 (human) (UniProt Q9HBW0); test: cell-based or functional assay
EDG7 (human) = EDG7 (human) (UniProt Q9UBY5); test: cell-based or functional assay
FFAR1 (human) = FFAR1 (human) (UniProt O14842); test: cell-based or functional assay
FPR1 (human) = FPR1 (human) (UniProt P21462); test: cell-based or functional assay
GALR1 (human) = GALR1 (human) (UniProt P47211); test: cell-based or functional assay
GHSR (human) = GHSR (human) (UniProt Q92847); test: cell-based or functional assay
GLP2R (human) = GLP2R (human) (UniProt O95838); test: cell-based or functional assay
GPR1 (human) = GPR1 (human) (UniProt P46091); test: cell-based or functional assay
GPR119 (human) = GPR119 (human) (UniProt Q8TDV5); test: cell-based or functional assay
HRH2 (human) = HRH2 (human) (UniProt P25021); test: cell-based or functional assay
HRH3 (human) = HRH3 (human) (UniProt Q9Y5N1); test: cell-based or functional assay
HTR1B (human) = HTR1B (human) (UniProt P28222); test: cell-based or functional assay
HTR2A (human) = HTR2A (human) (UniProt P28223); test: cell-based or functional assay
MC4R (human) = MC4R (human) (UniProt P32245); test: cell-based or functional assay
MCHR1 (human) = MCHR1 (human) (UniProt Q99705); test: cell-based or functional assay
MCHR2 (human) = MCHR2 (human) (UniProt Q969V1); test: cell-based or functional assay
MRGPRX2 (human) = MRGPRX2 (human) (UniProt Q96LB1); test: cell-based or functional assay
MTNR1A (human) = MTNR1A (human) (UniProt P48039); test: cell-based or functional assay
NMU1R (human) = NMU1R (human) (UniProt Q9HB89); test: cell-based or functional assay
NPBWR2 (human) = NPBWR2 (human) (UniProt P48146); test: cell-based or functional assay
NPY1R (human) = NPY1R (human) (UniProt P25929); test: cell-based or functional assay
OPRK1 (human) = OPRK1 (human) (UniProt P41145); test: cell-based or functional assay
OPRL1 (human) = OPRL1 (human) (UniProt P41146); test: cell-based or functional assay
OXER1 (human) = OXER1 (human) (UniProt Q8TDS5); test: cell-based or functional assay
OXTR (human) = OXTR (human) (UniProt P30559); test: cell-based or functional assay
P2RY1 (human) = P2RY1 (human) (UniProt P47900); test: cell-based or functional assay
P2RY2 (human) = P2RY2 (human) (UniProt P41231); test: cell-based or functional assay
PRLHR (human) = PRLHR (human) (UniProt P49683); test: cell-based or functional assay
PTGER3 (human) = PTGER3 (human) (UniProt P43115); test: cell-based or functional assay
PTGIR (human) = PTGIR (human) (UniProt P43119); test: cell-based or functional assay
PTHR1 (human) = PTHR1 (human) (UniProt Q03431); test: cell-based or functional assay
TACR1 (human) = TACR1 (human) (UniProt P25103); test: cell-based or functional assay
TACR2 (human) = TACR2 (human) (UniProt P21452); test: cell-based or functional assay
TRHR (human) = TRHR (human) (UniProt P34981); test: cell-based or functional assay
VIPR1 (human) = VIPR1 (human) (UniProt P32241); test: cell-based or functional assay
[1] = molecular target: human cloned somatostatin receptor 1 (human) (UniProt P30872); test: 125I-Tyr11-SRIF-14 displacement
[2] = molecular target: human cloned somatostatin receptor 2 (human) (UniProt P30874); test: 125I-Tyr11-SRIF-14 displacement
[3] = molecular target: human cloned somatostatin receptor 3 (human) (UniProt P32745); test: 125I-Tyr11-SRIF-14 displacement
[4] = molecular target: human cloned somatostatin receptor 5 (human) (UniProt P35346); test: 125I-Tyr11-SRIF-14 displacement
human cloned somatostatin receptor 5 (human), sequence (P35346 whole entry): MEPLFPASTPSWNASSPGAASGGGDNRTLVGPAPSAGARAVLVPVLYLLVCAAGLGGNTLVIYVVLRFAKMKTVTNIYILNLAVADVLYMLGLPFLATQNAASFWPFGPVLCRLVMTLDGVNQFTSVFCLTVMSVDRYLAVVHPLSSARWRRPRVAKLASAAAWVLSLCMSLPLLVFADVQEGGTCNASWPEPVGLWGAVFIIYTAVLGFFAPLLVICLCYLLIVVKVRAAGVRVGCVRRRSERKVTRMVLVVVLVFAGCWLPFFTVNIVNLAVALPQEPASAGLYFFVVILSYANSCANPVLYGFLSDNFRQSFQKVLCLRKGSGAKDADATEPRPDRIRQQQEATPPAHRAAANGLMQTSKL

human cloned somatostatin receptor 2 (human), sequence (P30874 whole entry): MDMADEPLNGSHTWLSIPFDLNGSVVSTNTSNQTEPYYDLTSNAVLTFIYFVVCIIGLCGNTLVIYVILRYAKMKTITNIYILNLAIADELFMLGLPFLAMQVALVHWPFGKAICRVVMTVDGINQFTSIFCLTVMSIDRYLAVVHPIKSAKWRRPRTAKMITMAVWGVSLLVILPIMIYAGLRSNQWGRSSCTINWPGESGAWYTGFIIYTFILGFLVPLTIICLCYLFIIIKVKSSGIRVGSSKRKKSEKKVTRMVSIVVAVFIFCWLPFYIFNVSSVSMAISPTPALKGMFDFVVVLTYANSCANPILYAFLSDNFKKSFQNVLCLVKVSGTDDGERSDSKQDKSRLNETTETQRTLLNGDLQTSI
human cloned somatostatin receptor 1 (human), sequence (P30872 whole entry): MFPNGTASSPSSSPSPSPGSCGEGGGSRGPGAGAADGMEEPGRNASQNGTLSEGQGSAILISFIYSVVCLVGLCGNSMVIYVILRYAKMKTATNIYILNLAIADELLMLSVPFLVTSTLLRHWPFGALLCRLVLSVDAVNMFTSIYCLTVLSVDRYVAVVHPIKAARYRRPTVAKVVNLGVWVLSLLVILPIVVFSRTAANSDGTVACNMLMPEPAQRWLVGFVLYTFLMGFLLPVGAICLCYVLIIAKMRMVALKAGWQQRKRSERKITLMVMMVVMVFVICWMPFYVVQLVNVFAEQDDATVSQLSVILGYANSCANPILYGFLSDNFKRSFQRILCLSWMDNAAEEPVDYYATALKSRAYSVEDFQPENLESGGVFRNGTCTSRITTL
CCR2 (human), sequence (P41597 whole entry): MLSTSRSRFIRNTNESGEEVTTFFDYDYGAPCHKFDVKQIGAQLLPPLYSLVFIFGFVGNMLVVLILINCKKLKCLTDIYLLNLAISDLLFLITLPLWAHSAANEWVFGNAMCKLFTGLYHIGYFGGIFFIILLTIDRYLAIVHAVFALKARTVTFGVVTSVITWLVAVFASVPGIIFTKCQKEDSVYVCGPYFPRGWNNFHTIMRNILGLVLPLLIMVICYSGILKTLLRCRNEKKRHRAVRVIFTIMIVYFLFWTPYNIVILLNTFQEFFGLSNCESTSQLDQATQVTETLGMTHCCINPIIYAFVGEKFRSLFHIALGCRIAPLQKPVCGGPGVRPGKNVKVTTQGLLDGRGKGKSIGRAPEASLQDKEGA
HTR2A (human), sequence (P28223 whole entry): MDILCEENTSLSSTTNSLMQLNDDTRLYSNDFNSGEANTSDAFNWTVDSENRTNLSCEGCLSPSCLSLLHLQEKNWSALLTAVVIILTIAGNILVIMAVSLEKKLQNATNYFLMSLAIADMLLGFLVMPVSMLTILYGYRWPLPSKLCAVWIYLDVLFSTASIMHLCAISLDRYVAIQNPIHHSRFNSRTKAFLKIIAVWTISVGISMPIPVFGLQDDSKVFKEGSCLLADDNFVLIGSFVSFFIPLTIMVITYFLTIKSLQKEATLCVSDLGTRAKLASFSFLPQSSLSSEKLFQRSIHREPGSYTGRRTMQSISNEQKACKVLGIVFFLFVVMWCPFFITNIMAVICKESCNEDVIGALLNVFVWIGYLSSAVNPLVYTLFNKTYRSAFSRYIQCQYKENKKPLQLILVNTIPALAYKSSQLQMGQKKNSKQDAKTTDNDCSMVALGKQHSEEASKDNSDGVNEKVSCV
CALCR (CR) (human), sequence (P30988 25-474): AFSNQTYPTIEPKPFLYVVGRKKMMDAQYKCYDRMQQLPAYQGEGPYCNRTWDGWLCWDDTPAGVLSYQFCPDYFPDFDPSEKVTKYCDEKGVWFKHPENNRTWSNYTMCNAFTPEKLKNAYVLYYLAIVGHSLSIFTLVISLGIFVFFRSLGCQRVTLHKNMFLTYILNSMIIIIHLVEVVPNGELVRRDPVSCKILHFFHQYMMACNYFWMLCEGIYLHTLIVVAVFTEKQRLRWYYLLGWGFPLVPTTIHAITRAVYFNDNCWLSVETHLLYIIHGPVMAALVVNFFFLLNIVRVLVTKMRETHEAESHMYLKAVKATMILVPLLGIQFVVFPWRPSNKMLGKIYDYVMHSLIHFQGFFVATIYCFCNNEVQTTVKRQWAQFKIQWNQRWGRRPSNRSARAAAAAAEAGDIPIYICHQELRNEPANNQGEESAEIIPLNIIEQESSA
MTNR1A (human), sequence (P48039 whole entry): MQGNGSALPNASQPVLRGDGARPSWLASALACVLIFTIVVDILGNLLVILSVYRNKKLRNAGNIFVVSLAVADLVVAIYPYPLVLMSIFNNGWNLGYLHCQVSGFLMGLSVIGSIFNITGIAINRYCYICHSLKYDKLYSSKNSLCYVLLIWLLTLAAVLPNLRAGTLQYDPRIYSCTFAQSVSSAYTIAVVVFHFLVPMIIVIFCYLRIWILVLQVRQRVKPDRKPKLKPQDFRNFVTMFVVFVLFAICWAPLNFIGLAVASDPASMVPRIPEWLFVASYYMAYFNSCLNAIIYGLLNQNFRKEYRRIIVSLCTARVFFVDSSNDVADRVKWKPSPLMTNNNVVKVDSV
OPRL1 (human), sequence (P41146 whole entry): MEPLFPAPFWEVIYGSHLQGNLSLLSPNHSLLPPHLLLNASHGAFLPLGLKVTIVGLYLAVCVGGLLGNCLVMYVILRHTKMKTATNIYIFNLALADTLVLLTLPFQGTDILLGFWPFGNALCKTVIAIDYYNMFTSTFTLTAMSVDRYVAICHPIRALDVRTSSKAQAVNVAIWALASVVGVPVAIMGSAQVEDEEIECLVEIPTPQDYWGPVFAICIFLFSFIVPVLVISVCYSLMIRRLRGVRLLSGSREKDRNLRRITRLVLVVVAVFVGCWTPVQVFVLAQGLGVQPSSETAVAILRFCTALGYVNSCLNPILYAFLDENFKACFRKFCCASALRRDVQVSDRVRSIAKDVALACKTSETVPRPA
EDG7 (human), sequence (Q9UBY5 whole entry): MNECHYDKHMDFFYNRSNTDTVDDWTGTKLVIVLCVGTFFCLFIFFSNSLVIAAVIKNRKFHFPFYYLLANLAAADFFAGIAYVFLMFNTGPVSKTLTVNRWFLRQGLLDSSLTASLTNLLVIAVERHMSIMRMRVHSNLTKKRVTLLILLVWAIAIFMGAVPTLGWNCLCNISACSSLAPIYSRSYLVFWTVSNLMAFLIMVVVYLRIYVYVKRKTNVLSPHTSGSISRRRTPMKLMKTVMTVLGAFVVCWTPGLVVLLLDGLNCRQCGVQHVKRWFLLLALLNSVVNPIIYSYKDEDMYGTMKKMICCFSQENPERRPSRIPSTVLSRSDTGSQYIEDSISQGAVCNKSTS
GALR1 (human), sequence (P47211 whole entry): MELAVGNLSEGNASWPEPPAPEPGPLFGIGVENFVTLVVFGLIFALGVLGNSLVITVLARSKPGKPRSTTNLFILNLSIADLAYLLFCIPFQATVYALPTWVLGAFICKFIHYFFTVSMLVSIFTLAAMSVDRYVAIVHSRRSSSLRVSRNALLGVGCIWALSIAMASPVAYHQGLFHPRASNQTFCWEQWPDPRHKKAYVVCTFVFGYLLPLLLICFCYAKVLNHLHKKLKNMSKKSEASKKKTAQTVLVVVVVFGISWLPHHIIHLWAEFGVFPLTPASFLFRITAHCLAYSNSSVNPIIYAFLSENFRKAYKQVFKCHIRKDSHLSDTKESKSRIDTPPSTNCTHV
NPY1R (human), sequence (P25929 whole entry): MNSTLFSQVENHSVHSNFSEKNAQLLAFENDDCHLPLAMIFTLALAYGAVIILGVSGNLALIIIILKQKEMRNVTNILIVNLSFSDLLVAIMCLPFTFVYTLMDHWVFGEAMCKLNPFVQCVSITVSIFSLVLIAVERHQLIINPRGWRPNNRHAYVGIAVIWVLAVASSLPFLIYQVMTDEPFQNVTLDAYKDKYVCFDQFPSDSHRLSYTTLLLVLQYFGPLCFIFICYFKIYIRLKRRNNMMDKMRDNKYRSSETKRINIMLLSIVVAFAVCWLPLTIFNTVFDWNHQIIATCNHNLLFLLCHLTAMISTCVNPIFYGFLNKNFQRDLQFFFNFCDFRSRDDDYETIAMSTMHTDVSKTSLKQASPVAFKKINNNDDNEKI
EBI2 (human), sequence (P32249 whole entry): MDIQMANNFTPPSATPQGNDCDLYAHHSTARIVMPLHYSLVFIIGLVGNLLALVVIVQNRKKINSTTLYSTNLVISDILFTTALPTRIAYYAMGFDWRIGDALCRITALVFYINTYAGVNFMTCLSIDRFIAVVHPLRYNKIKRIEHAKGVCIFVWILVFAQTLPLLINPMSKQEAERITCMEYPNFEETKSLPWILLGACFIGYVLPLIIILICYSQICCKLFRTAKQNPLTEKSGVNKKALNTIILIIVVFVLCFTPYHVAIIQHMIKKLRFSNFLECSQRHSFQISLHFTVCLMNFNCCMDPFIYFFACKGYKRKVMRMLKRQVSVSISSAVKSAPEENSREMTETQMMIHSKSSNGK
MC4R (human), sequence (P32245 whole entry): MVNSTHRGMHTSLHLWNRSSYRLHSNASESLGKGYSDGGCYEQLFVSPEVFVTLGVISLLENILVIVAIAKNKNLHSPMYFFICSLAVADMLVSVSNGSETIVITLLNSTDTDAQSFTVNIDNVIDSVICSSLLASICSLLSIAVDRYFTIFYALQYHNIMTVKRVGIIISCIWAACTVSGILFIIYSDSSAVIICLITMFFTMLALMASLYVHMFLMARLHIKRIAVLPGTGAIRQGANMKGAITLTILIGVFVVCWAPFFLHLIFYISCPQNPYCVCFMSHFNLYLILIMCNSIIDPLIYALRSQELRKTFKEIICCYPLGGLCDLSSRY

B1: SEQ ID NO: 4 (peptide)
peptide: {DOTA}-[dF]RCF[dW]KTF[N(2-mercaptoethyl)Gly]-NH2
modifications: disulfide 3-9; also: Ga complex of DOTA
(CR)L-RAMP3 (human)
  % Activity (agonist mode, 1 µM): 0%
ADCYAP1R1 (human)
  % Activity (agonist mode, 1 µM): 0%
ADRA1B (human)
  % Activity (agonist mode, 1 µM): -2%
ADRA2A (human)
  % Activity (agonist mode, 1 µM): 3%
ADRB2 (human)
  % Activity (agonist mode, 1 µM): 0%
AGTR1 (human)
  % Activity (agonist mode, 1 µM): -2%
C5L2 (human)
  % Activity (agonist mode, 1 µM): -1%
CALCR (CR) (human)
  % Activity (agonist mode, 1 µM): 0%
CCR2 (human)
  % Activity (agonist mode, 1 µM): 1%
CHRM1 (human)
  % Activity (agonist mode, 1 µM): -1%
CHRM4 (human)
  % Activity (agonist mode, 1 µM): -3%
CHRM5 (human)
  % Activity (agonist mode, 1 µM): 5%
CRHR2 (human)
  % Activity (agonist mode, 1 µM): 0%
CXCR2 (human)
  % Activity (agonist mode, 1 µM): -1%
CXCR5 (human)
  % Activity (agonist mode, 1 µM): 0%
DRD1 (human)
  % Activity (agonist mode, 1 µM): 0%
DRD2S (human)
  % Activity (agonist mode, 1 µM): 0%
EBI2 (human)
  % Activity (agonist mode, 1 µM): -1%
EDG4 (human)
  % Activity (agonist mode, 1 µM): 6%
EDG7 (human)
  % Activity (agonist mode, 1 µM): 0%
FFAR1 (human)
  % Activity (agonist mode, 1 µM): -4%
FPR1 (human)
  % Activity (agonist mode, 1 µM): -1%
GALR1 (human)
  % Activity (agonist mode, 1 µM): 2%
GHSR (human)
  % Activity (agonist mode, 1 µM): -1%
GLP2R (human)
  % Activity (agonist mode, 1 µM): -1%
GPR1 (human)
  % Activity (agonist mode, 1 µM): 0%
GPR119 (human)
  % Activity (agonist mode, 1 µM): 19%
HRH2 (human)
  % Activity (agonist mode, 1 µM): -4%
HRH3 (human)
  % Activity (agonist mode, 1 µM): -2%
HTR1B (human)
  % Activity (agonist mode, 1 µM): -1%
HTR2A (human)
  % Activity (agonist mode, 1 µM): -1%
MC4R (human)
  % Activity (agonist mode, 1 µM): 0%
MCHR1 (human)
  % Activity (agonist mode, 1 µM): -1%
MCHR2 (human)
  % Activity (agonist mode, 1 µM): 1%
MRGPRX2 (human)
  % Activity (agonist mode, 1 µM): 1%
MTNR1A (human)
  % Activity (agonist mode, 1 µM): -7%
NMU1R (human)
  % Activity (agonist mode, 1 µM): 1%
NPBWR2 (human)
  % Activity (agonist mode, 1 µM): 1%
NPY1R (human)
  % Activity (agonist mode, 1 µM): -5%
OPRK1 (human)
  % Activity (agonist mode, 1 µM): -2%
OPRL1 (human)
  % Activity (agonist mode, 1 µM): -3%
OXER1 (human)
  % Activity (agonist mode, 1 µM): -2%
OXTR (human)
  % Activity (agonist mode, 1 µM): 0%
P2RY1 (human)
  % Activity (agonist mode, 1 µM): -2%
P2RY2 (human)
  % Activity (agonist mode, 1 µM): 2%
PRLHR (human)
  % Activity (agonist mode, 1 µM): 1%
PTGER3 (human)
  % Activity (agonist mode, 1 µM): 1%
PTGIR (human)
  % Activity (agonist mode, 1 µM): 0%
PTHR1 (human)
  % Activity (agonist mode, 1 µM): 0%
TACR1 (human)
  % Activity (agonist mode, 1 µM): 0%
TACR2 (human)
  % Activity (agonist mode, 1 µM): -1%
TRHR (human)
  % Activity (agonist mode, 1 µM): 3%
VIPR1 (human)
  % Activity (agonist mode, 1 µM): 0%
[1]
  IC50: > 1000 nM
  Ki: 880 nM
[2]
  IC50: 56 nM
  Ki: 30 nM
[3]
  IC50: 1 nM
[4]
  IC50: 140 nM
  Ki: 78 nM

Source: patent US20240165282A1, “CONFORMATIONAL CONSTRAINED SOMATOSTATIN RECEPTOR 3 PEPTIDE LIGANDS AND THEIR CONJUGATES AND USES THEREOF” (STARGET PHARMA LTD., priority 2021, published 2024)
